Laboratory results as given in publication PMC4041439 (Nucleic Acids Research, 2014).

Biological target: T1, Mms4 (S. cerevisiae, UniProt P38257 1-691)
T1 sequence (looked up): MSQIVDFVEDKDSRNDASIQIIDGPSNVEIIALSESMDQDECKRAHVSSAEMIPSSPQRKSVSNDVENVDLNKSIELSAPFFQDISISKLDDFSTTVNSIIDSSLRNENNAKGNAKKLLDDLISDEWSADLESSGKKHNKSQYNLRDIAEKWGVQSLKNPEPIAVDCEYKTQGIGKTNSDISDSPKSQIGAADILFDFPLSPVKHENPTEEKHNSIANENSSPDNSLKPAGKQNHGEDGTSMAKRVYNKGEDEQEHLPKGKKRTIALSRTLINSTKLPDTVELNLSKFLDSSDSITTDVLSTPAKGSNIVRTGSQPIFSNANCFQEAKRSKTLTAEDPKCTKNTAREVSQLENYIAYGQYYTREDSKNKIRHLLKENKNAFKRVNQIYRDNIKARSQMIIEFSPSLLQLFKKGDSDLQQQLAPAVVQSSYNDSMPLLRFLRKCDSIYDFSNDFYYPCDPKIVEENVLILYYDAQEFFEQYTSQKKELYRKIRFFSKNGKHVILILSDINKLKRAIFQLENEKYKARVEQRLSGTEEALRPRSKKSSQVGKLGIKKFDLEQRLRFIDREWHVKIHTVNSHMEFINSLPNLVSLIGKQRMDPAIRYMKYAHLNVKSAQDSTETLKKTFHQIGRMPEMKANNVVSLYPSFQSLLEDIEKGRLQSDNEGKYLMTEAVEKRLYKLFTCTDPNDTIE
Assay: cross-linking

B1: Mus81 (enzyme, S. cerevisiae, UniProt Q04149 1-632, looked up)
chain: MELSSNLKDLYIEWLQELVDGLTPKQEQLKIAYEKAKRNLQNAEGSFYYPTDLKKVKGIGNTIIKRLDTKLRNYCKIHHISPVEAPSLTQTSSTRPPKRTTTALRSIVNSCENDKNEAPEEKGTKKRKTRKYIPKKRSGGYAILLSLLELNAIPRGVSKEQIIEVAGKYSDHCMTPNFSTKEFYGAWSSIAALKKHSLVLEEGRPKRYSLTEEGVELTKSLKTADGISFPKENEEPNEYSVTRNESSEFTANLTDLRGEYGKEEEPCDINNTSFMLDITFQDLSTPQRLQNNVFKNDRLNSQTNISSHKLEEVSDDQTVPDSALKAKSTIKRRRYNGVSYELWCSGDFEVFPIIDHREIKSQSDREFFSRAFERKGMKSEIRQLALGDIIWVAKNKNTGLQCVLNTIVERKRLDDLALSIRDNRFMEQKNRLEKSGCEHKYYLIEETMSGNIGNMNEALKTALWVILVYYKFSMIRTCNSDETVEKIHALHTVISHHYSQKDLIVIFPSDLKSKDDYKKVLLQFRREFERKGGIECCHNLECFQELMGKGDLKTVGELTIHVLMLVKGISLEKAVAIQEIFPTLNKILMAYKTCSSEEEAKLLMFNVLGDAPGAKKITKSLSEKIYDAFGKL
B1: binds.
